Patent US10799597B2, “Subcutaneous administration of antibody-drug conjugates for cancer therapy” (Immunomedics, Inc., priority 2017, dated 2020)

Experiments:
[1] = Phase I/II clinical trial of IMMU-132 (Example 9): related adverse events
Procedure: To optimize cumulative treatment with minimal delays, phase II is focusing on 8 and 10 mg/kg (n=30 and 14, respectively). […] [table]

[2] = Tolerability in Swiss-Webster mice; assay type: in vivo
[3] = 49 patients reporting related AE
[4] = related AE, N = 47 patients, CTCAE v 4.0

IMMU-132: ADC of the humanized hRS7 anti-Trop-2 antibody conjugated by a pH-sensitive linker (CL2A) to SN-38
alopecia [1, 3]: 40% | diarrhea [1, 3]: 47% | fatigue [1, 3]: 55% | nausea [1, 3]: 53% | neutropenia G4 [1, 3]: 4% | vomiting [1, 3]: 32% | Abdominal pain, Grade 3, patients (%) [1, 4]: 0 | Abdominal pain, Grade 4, patients (%) [1, 4]: 0 | Anemia, Grade 3, patients (%) [1, 4]: 2 (4%) | Anemia, Grade 4, patients (%) [1, 4]: 0 | Deep vein thrombosis, Grade 3, patients (%) [1, 4]: 1 (2%) | Deep vein thrombosis, Grade 4, patients (%) [1, 4]: 0 | Diarrhea, Grade 3, patients (%) [1, 4]: 4 (9%) | Diarrhea, Grade 4, patients (%) [1, 4]: 0 | Dysgeusia, Grade 3, patients (%) [1, 4]: 0 | Dysgeusia, Grade 4, patients (%) [1, 4]: 0 | Fatigue, Grade 3, patients (%) [1, 4]: 4 (9%) | Fatigue, Grade 4, patients (%) [1, 4]: 0 | Febrile Neutropenia, Grade 3, patients (%) [1, 4]: 1 (2%) | Febrile Neutropenia, Grade 4, patients (%) [1, 4]: 2 (4%) | Hypokalemia, Grade 3, patients (%) [1, 4]: 1 (2%) | Hypokalemia, Grade 4, patients (%) [1, 4]: 0 | Nausea, Grade 3, patients (%) [1, 4]: 0 | Nausea, Grade 4, patients (%) [1, 4]: 0 | Neutropenia, Grade 3, patients (%) [1, 4]: 11 (24%) | Neutropenia, Grade 4, patients (%) [1, 4]: 2 (4%) | Pyrexia, Grade 3, patients (%) [1, 4]: 0 | Pyrexia, Grade 4, patients (%) [1, 4]: 0 | Vomiting, Grade 3, patients (%) [1, 4]: 1 (2%) | Vomiting, Grade 4, patients (%) [1, 4]: 0 | WBC Decrease, Grade 3, patients (%) [1, 4]: 1 (2%) | WBC Decrease, Grade 4, patients (%) [1, 4]: 0 | chloride levels, range ([2]; 2 highest dosage groups, upper end of normal range 115 mmol/L): 116 to 127 mmol/L | weight loss ([2]; 2 i.p. doses over 3 days of 4, 8, and 12 mg SN-38/kg): minimal transient weight loss | mice with elevated chloride levels ([2]; 2×8 mg/kg group): 57% | mice with slightly elevated glucose levels ([2]; 2×8 mg/kg, of 7 mice): 5 | elevated glucose levels, range ([2]; 2×8 mg/kg, upper end of normal 263 mg/dL): 273 to 320 mg/dL | mice with elevated chloride levels ([2]; 2×12 mg/kg group): 100% | aspartate transaminase (AST) ([2]; seven days after treatment, all 3 treatment groups, normal limit 298 U/L): rose above normal levels
